± gives the standard deviation of the averaged measurements.
Experiment: total protein half-life in vivo (active degradation + dilution); higher = more stable protein
[1] = E. coli NCM3722 delta-clpP, growth: N-lim chemostat, doubling time 6 h
[2] = E. coli NCM3722 delta-hslV, growth: N-lim chemostat, doubling time 6 h
[3] = E. coli NCM3722 delta-smpB, growth: N-lim chemostat, doubling time 6 h
[4] = wild type E. coli NCM3722, growth: C-lim chemostat, doubling time 3 h
[5] = wild type E. coli NCM3722, growth: C-lim chemostat, doubling time 6 h
[6] = wild type E. coli NCM3722, growth: C-lim chemostat, doubling time 12 h
[7] = wild type E. coli NCM3722, growth: N-lim chemostat, doubling time 6 h
[8] = wild type E. coli NCM3722, growth: N-lim chemostat, doubling time 12 h
[9] = wild type E. coli NCM3722, growth: P-lim chemostat, doubling time 6 h
[10] = wild type E. coli NCM3722, growth: P-lim chemostat, doubling time 12 h
[11] = E. coli NCM3722 delta-clpP delta-lon delta-hslV, growth: N-lim chemostat, doubling time 6 h
[12] = E. coli NCM3722 delta-lon, growth: N-lim chemostat, doubling time 6 h

| Sequence | total protein half-life in vivo [1] [h] | total protein half-life in vivo [2] [h] | total protein half-life in vivo [3] [h] | total protein half-life in vivo [4] [h] | total protein half-life in vivo [5] [h] | total protein half-life in vivo [6] [h] | total protein half-life in vivo [7] [h] | total protein half-life in vivo [8] [h] | total protein half-life in vivo [9] [h] | total protein half-life in vivo [10] [h] | total protein half-life in vivo [11] [h] | total protein half-life in vivo [12] [h] |
| --- | --- | --- | --- | --- | --- | --- | --- | --- | --- | --- | --- | --- |
| MSKATEQNDKLKRAIIISAVLHVILFAALIWSSFDENIEASAGGGGGSSIDAVMVDSGAVVEQYKRMQSQESSAKRSDEQRKMKEQQAAEELREKQAAEQERLKQLEKERLAAQEQKKQAEEAAKQAELKQKQAEEAAAKAAADAKAKAEADAKAAEEAAKKAAADAKKKAEAEAAKAAAEAQKKAEAAAAALKKKAEAAEAAAAEARKKAATEAAEKAKAEAEKKAAAEKAAADKKAAAEKAAADKKAAEKAAAEKAAADKKAAAEKAAADKKAAAAKAAAEKAAAAKAAAEADDIFGELSSGKNAPKTGGGAKGNNASPAGSGNTKNNGASGADINNYAGQIKSAIESKFYDASSYAGKTCTLRIKLAPDGMLLDIKPEGGDPALCQAALAAAKLAKIPKPPSQAVYEVFKNAPLDFKP | 6.28 ± 0.72 | 6.23 ± 0.21 | 5.79 ± 0.58 | 3.23 ± 0.71 | 6.022 ± 0.019 | 11.6 ± 1.8 | 5.85 ± 0.2 | 12.7 ± 1.3 | 5.49 ± 0.21 | 12.3 ± 0.83 |  |  |
| MQSLHGNCLIAYARHKYILTMVNGEYRYFNGGDLVFADASQIRVDKCVENFVFVSRDTLSLFLPMLKEEALNLHAHKKVSSLLVHHCSRDIPVFQEVAQLSQNKNLRYAEMLRKRALIFALLSVFLEDEHFIPLLLNVLQPNMRTRVCTVINNNIAHEWTLARIASELLMSPSLLKKKLREEETSYSQLLTECRMQRALQLIVIHGFSIKRVAVSCGYHSVSYFIYVFRNYYGMTPTEYQERSAQRLSNRDSAASIVAQGNFYGTDRSAEGIRL | 1.14 |  |  |  |  |  |  |  |  |  | 6.49 ± 1 |  |
| MTFWSILRQRCWGLVLVVAGVCVITFIISHLIPGDPARLLAGDRASDAIVENIRQQLGLDQPLYVQFYRYVSDLFHGDLGTSIRTGRPVLEELRIFFPATLELAFGALLLALLIGIPLGILSAVWRNRWLDHLVRIMAITGISTPAFWLGLGVIVLFYGHLQILPGGGRLDDWLDPPTHVTGFYLLDALLEGNGEVFFNALQHLILPALTLAFVHLGIVARQIRSAMLEQLSEDYIRTARASGLPGWYIVLCYALPNALIPSITVLGLALGDLLYGAVLTETVFAWPGMGAWVVTSIQALDFPAVMGFAVVVSFAYVLVNLVVDLLYLWIDPRIGRGGGE |  | 5.53 |  |  |  |  | 5.15 | 7.28 |  |  | > 8 |  |
| MKRKRLFLLASLLPMFALAGNKWNTTLPGGNMQFQGVIIAETCRIEAGDKQMTVNMGQISSNRFHAVGEDSAPVPFVIHLRECSTVVSERVGVAFHGVADGKNPDVLSVGEGPGIATNIGVALFDDEGNLVPINRPPANWKRLYSGSTSLHFIAKYRATGRRVTGGIANAQAWFSLTYQ |  |  | 5.7 ± 0.54 | 2.67 | 6.06 |  |  |  |  |  |  |  |
| MSQVQFSHNPLFCIDIIKTYKPDFTPRVAFILGSGLGALADQIENAVAISYEKLPGFPVSTVHGHAGELVLGHLQGVPVVCMKGRGHFYEGRGMTIMTDAIRTFKLLGCELLFCTNAAGSLRPEVGAGSLVALKDHINTMPGTPMVGLNDDRFGERFFSLANAYDAEYRALLQKVAKEEGFPLTEGVFVSYPGPNFETAAEIRMMQIIGGDVVGMSVVPEVISARHCDLKVVAVSAITNMAEGLSDVKLSHAQTLAAAELSKQNFINLICGFLRKIA |  |  | 1.93 ± 0.26 | 2 |  | 6.43 |  |  | 2.34 | 5.82 | 5.56 ± 0.68 |  |
| MSEDIFDAIIVGAGLAGSVAALVLAREGAQVLVIERGNSAGAKNVTGGRLYAHSLEHIIPGFADSAPVERLITHEKLAFMTEKSAMTMDYCNGDETSPSQRSYSVLRSKFDAWLMEQAEEAGAQLITGIRVDNLVQRDGKVVGVEADGDVIEAKTVILADGVNSILAEKLGMAKRVKPTDVAVGVKELIELPKSVIEDRFQLQGNQGAACLFAGSPTDGLMGGGFLYTNENTLSLGLVCGLHHLHDAKKSVPQMLEDFKQHPAVAPLIAGGKLVEYSAHVVPEAGINMLPELVGDGVLIAGDAAGMCMNLGFTIRGMDLAIAAGEAAAKTVLSAMKSDDFSKQKLAEYRQHLESGPLRDMRMYQKLPAFLDNPRMFSGYPELAVGVARDLFTIDGSAPELMRKKILRHGKKVGFINLIKDGMKGVTVL |  |  |  |  |  | 9.28 |  |  |  |  |  |  |
| MMLSATQPLSEKLPAHGCRHVAIIMDGNGRWAKKQGKIRAFGHKAGAKSVRRAVSFAANNGIEALTLYAFSSENWNRPAQEVSALMELFVWALDSEVKSLHRHNVRLRIIGDTSRFNSRLQERIRKSEALTAGNTGLTLNIAANYGGRWDIVQGVRQLAEKVQQGNLQPDQIDEEMLNQHVCMHELAPVDLVIRTGGEHRISNFLLWQIAYAELYFTDVLWPDFDEQDFEGALNAFANRERRFGGTEPGDETA | 4.73 ± 0.53 | 2.9 ± 0.15 | 3.01 ± 0.68 | 2.21 ± 0.11 | 3.73 ± 0.41 | 5.97 | 3.18 ± 0.091 | 6.55 | 3.94 ± 0.13 | 5.49 ± 2.1 | 4.31 ± 0.33 | 3.15 ± 0.76 |
| MGYLNNVTGYREDLLANRAIVKHGNFALLTPDGLVKNIIPGFENCDATILSTPKLGASFVDYLVTLHQNGGNQQGFGGEGIETFLYVISGNITAKAEGKTFALSEGGYLYCPPGSLMTFVNAQAEDSQIFLYKRRYVPVEGYAPWLVSGNASELERIHYEGMDDVILLDFLPKELGFDMNMHILSFAPGASHGYIETHVQEHGAYILSGQGVYNLDNNWIPVKKGDYIFMGAYSLQAGYGVGRGEAFSYIYSKDCNRDVEI | 4.57 ± 0.21 | 4.56 ± 0.21 | 4.52 ± 0.48 |  | 6.13 ± 0.5 | 10.8 ± 1.2 | 4.4 ± 0.1 | 7 ± 0.45 | 5.21 ± 0.26 | 11.1 ± 0.86 | 4.66 ± 0.65 | 4.35 ± 0.076 |
